Measured values reported in paper PMC12711028.

Key:
[1] = target: Ss-DAF-2B, isoform B of the insulin receptor homolog Ss-DAF-2 of Strongyloides stercoralis (Strongyloides stercoralis)
[2] = target: Ss-DAF-2B, isoform B of the insulin receptor homolog Ss-DAF-2 of Strongyloides stercoralis (Strongyloides stercoralis); remark: listed apart in the source

Substance bovine insulin (ligand) has a Ss-daf-2 transcript level in iL3 treated with bovine insulin, fold change against control (RT-PCR); no significant effect [1] of 1 fold and a feeding rate of S. stercoralis iL3 with bovine insulin; endogenous Ss-DAF-2, isoforms not told apart [2] of 38.2%.

For “human insulin (Hs-INS) (from UniProt P01308 1-110) (ligand)”, the Ss-daf-2 transcript level in iL3 treated with human insulin, fold change against control (RT-PCR) [1] was 2.6 fold and the feeding rate of S. stercoralis iL3 with human insulin compared with porcine and bovine insulin at equivalent concentrations; endogenous Ss-DAF-2, isoforms not told apart [2] was 72.2%.

porcine insulin (ligand) showed a Ss-daf-2 transcript level in iL3 treated with porcine insulin, fold change against control (RT-PCR); no significant effect [1] of 0.9 fold and a feeding rate of S. stercoralis iL3 with porcine insulin; endogenous Ss-DAF-2, isoforms not told apart [2] of 0.7%.
